Results: publication PMC11946224

Tests used:
[1] = biological target: recombinant cylindracin (C-terminal cysteine-rich domain of cylindracin) (Cyclocybe cylindracea); assay: cross-linking; rCYL raised from 0.25 mg/mL (39 uM) to 2.0 mg/mL (312 uM) with BS(PEG)9 at 500 uM; SDS-PAGE, Coomassie staining
[2] = biological target: recombinant cylindracin (C-terminal cysteine-rich domain of cylindracin) (Cyclocybe cylindracea); assay: as above; remark: listed apart in the source
[3] = biological target: recombinant cylindracin (C-terminal cysteine-rich domain of cylindracin) (Cyclocybe cylindracea); assay: cross-linking; rCYL at 0.25 mg/mL (39 uM) with 0.005-5 mM BS(PEG)9 in 20 mM sodium phosphate pH 7.2, 150 mM NaCl, 25 C, 30 min; SDS-PAGE, Coomassie staining

## recombinant cylindracin (C-terminal cysteine-rich domain of cylindracin) (domain or fragment)
[1]
  stoichiometry N: 4
[2]
  stoichiometry N: 2
[3]
  stoichiometry N: 2
